# Laboratory results taken from the supplement of paper PMC10567573.
# ± gives the standard deviation.
# Experiment: protein stability index of a GFP-peptide fusion (GPS, HEK-293T) (PSI 1-6); higher = more stable
# Details: c terminus: a fixed tail appended
# 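Also: 24-mer peptide tiles fused after GFP, lentivirally expressed, FACS-sorted into six equal bins by GFP/DsRed ratio, decoded by Illumina sequencing, PSI is the read-weighted mean bin number.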
Sequence,protein stability index (treatment: DMSO),"protein stability index (treatment: MLN4924 1 uM, 8 h)"
FGIEIEVTDINDNAPKFQAENLDV [PCDHGA10],3.5 ± 0.56,3.98 ± 0.38
NCPAHWLAQDWERCNTTCGRGVKK [ADAMTSL2],4.16 ± 0.19,4.42 ± 0.16
VSLKQEGDDQPSETDHLSMEEEDP [TPRG1],5.61 ± 0.22,5.63 ± 0.2
DPFDEIILFSLPPALDWDSVHVPG [PTPN9],2.55 ± 0.29,2.6 ± 0.19
EKKVLEAGMGKVTSASFGEESTPG [HDAC6],5.21 ± 0.23,5.18 ± 0.32
TSNSDDNMLKNIELFDKLSLRFNG [KCTD10],3.07 ± 0.3,3.18 ± 0.39
DELALSLGYAASLEASVQDDAGTS [C2CD2L],5.34 ± 0.32,5.22 ± 0.21
TSRTQVYKPPALKKSNSPGTASSG [ZC2HC1A],4.42 ± 0.15,4.46 ± 0.17
HRELLRLESRIRDVHELFLQMAVL [STX11],2.49 ± 0.33,2.4 ± 0.28
LLPESGIVADIELENVLDPDSFYE [TFE3],4.47 ± 0.3,4.76 ± 0.49
RKSMLDAGPDSWGSDAEQSTSGQP [LCOR],5.21 ± 0.091,5.15 ± 0.24
LNFQIEHHLFPTMPRHNYHKVAPL [FADS1],1.98 ± 0.33,2.02 ± 0.51
EAELELLRQFDLAWQYGPCTGITR [POLD4],2.85 ± 0.3,2.67 ± 0.3
GNPRALSFVLSSLQLGEGVEFDVL [OAS1],2.29 ± 0.22,2.12 ± 0.32
DVLRGNDETIGFEDILNDPSQSEV [POMP],5.13 ± 0.092,5.21 ± 0.17
KETAHDLDVKSPPEPRSEVVPARL [RIPK4],4.8 ± 1.2,4.88 ± 0.86
HFSQSLTVIHDFLFSLKESPEKFQ [FAF2],2.06 ± 0.23,2.44 ± 0.26
YNWEEERATNHLDQVPSMQDGSES [SPAG8],5.33 ± 0.23,5.44 ± 0.15
FHCIETLVTTGANVNETDDWGRTA [ANKRD44],2.62 ± 0.32,3.15 ± 0.36
ARRRQSAGPWPRPKGSLSMGPAPR [RASAL3],3.81 ± 0.25,4.03 ± 0.33
QQAMSLAILRVIRLVRVFRIFKLS [KCNA3],2.69 ± 0.26,2.63 ± 0.44
DKPVTGPRNKTENGLTPKKKIQVN [ATF6],4.81 ± 0.31,4.63 ± 0.32
TQLKIENNPFAKGFRGSDDMELHR [TBX5],4.04 ± 0.25,4.02 ± 0.67
EETEVLAHEIERLQMEMKEDDVSF [TRIM35],5.43 ± 0.2,5.48 ± 0.094
FANEEEAKKFRKAVTDLLGRRQRK [WASL],3.15 ± 0.24,3.52 ± 0.27
EQYDLATKRVRQLLDLDPEVECLK [GOLPH3],3.96 ± 0.28,3.97 ± 0.43
LLATRIAVYLMTFLIVTVAWAAHT [TMEM175],3.5 ± 0.17,3.12 ± 0.24

Sequence,protein stability index (treatment: DMSO),"protein stability index (treatment: MLN4924 1 uM, 8 h)"
RHLDFHVKDLIKKLLVVDRTRRLG [PRKX],2.57 ± 0.042,2.41 ± 0.36
VWYVKKFGRYLEHLEVKFMNPYNA [FBXO39],2.66 ± 0.53,2.02 ± 0.45
GGGLTGVSGSHFVGVDGVRAFLQT [PCDHGA10],2.82 ± 0.29,2.83 ± 0.32
KLSAKSLQTLRSFSHTLVSLSLFG [ZER1],3 ± 0.45,2.95 ± 0.43
LHAWEMKPYAVMVFQTEQKNLFRL [N4BP2L1],2.44 ± 0.61,2.41 ± 0.41
VKFCLLGALLAPIRVLLAFIVLFL [LPCAT4],2.15 ± 0.29,1.86 ± 0.2
EWARALETRDWGGAQFEGEKGRAL [ZSWIM9],3.88 ± 0.3,3.9 ± 0.31
SCAPSASIPKLKLTRPVPAGADLP [PWWP2B],3.21 ± 0.25,3.35 ± 0.27
GGPQRIPAHRFVLAAGSAVFDAMF [BTBD1],2.52 ± 0.31,2.2 ± 0.56
TGESKEQVANSAFVERVRKRGFEV [HSP90AB1],4.18 ± 0.15,4.26 ± 0.12
LECEINTYRSLLESEDCKLPCNPC [KRT34],3.81 ± 0.16,3.94 ± 0.35
THEEGSYLFWEFATDNYDIGFGVY [ACBD3],2.65 ± 0.48,2.15 ± 0.32
FSGHFLCTSSWDKNLKIWNVHTGE [WDR88],2.71 ± 0.71,2.55 ± 0.15
RSRIEEQSQLICILKRRSDEALER [CCDC89],3.86 ± 0.12,3.76 ± 0.23
RYDHGTFFPMGDEGASSQIGRAAG [HDAC6],4.24 ± 0.37,4.13 ± 0.22
EEELNFEKGETMEVIEKPENDPEW [NCK2],5.53 ± 0.32,5.55 ± 0.5
DLIDRGWRRSGKYVYKPVMNQTCC [ATE1],2.26 ± 0.14,2.23 ± 0.23
FLGGVVRMTISLTVILIESTNEIT [CLCN6],3.41 ± 0.43,3.42 ± 0.19
QLSELRSEMECQNQEYKMLLDIKT [KRT13],4.09 ± 0.12,4 ± 0.29
GLRASTSDGILRGNGTGYLPGRGR [RHOBTB2],4.58 ± 0.26,4.58 ± 0.2
PRGSETERLLTPNPGYGTQAGPSP [MCOLN1],4.41 ± 0.18,4.79 ± 0.28
EFPDFYDSEEPVSTHQEAENEKDR [CHGB],5.68 ± 0.25,5.54 ± 0.24
VFLVSCALPDSVLRRFVVRTMCAV [AUP1],2.71 ± 0.49,2.67 ± 0.068
GMGGIQNEKETMQSLNDRLASYLD [KRT18],3.86 ± 0.18,3.84 ± 0.23
QTRMAVSLTAAETLALQGTQGQEK [ZNF232],5.15 ± 0.24,4.98 ± 0.21
LEEAEGAVGYQPEYSKFCRMSYQD [NFE2L1],3.56 ± 0.4,3.05 ± 0.31
LTVQFVQGIFVEKYDPTIEDSYRK [RAP1B],2.17 ± 0.47,2.1 ± 0.57
